Earlier results on 1 substance are cited in article PMC10977282.

The target in this data set is DR5 (Homo sapiens) (UniProt O14763).

As for OPG (from UniProt O00300), the dissociation constant (Kd) (as a rule, the free concentration of one partner at which half of the binding sites on the other are occupied at equilibrium, for simple one-to-one binding) is under 400 nM.
